According to publication PMC7864917:

Molecular target: wild-type pig RyR1 (ryanodine receptor 1) (pig (purified from porcine skeletal muscle)) (UniProt P16960)
Chain of UniProt P16960 (P16960 whole entry): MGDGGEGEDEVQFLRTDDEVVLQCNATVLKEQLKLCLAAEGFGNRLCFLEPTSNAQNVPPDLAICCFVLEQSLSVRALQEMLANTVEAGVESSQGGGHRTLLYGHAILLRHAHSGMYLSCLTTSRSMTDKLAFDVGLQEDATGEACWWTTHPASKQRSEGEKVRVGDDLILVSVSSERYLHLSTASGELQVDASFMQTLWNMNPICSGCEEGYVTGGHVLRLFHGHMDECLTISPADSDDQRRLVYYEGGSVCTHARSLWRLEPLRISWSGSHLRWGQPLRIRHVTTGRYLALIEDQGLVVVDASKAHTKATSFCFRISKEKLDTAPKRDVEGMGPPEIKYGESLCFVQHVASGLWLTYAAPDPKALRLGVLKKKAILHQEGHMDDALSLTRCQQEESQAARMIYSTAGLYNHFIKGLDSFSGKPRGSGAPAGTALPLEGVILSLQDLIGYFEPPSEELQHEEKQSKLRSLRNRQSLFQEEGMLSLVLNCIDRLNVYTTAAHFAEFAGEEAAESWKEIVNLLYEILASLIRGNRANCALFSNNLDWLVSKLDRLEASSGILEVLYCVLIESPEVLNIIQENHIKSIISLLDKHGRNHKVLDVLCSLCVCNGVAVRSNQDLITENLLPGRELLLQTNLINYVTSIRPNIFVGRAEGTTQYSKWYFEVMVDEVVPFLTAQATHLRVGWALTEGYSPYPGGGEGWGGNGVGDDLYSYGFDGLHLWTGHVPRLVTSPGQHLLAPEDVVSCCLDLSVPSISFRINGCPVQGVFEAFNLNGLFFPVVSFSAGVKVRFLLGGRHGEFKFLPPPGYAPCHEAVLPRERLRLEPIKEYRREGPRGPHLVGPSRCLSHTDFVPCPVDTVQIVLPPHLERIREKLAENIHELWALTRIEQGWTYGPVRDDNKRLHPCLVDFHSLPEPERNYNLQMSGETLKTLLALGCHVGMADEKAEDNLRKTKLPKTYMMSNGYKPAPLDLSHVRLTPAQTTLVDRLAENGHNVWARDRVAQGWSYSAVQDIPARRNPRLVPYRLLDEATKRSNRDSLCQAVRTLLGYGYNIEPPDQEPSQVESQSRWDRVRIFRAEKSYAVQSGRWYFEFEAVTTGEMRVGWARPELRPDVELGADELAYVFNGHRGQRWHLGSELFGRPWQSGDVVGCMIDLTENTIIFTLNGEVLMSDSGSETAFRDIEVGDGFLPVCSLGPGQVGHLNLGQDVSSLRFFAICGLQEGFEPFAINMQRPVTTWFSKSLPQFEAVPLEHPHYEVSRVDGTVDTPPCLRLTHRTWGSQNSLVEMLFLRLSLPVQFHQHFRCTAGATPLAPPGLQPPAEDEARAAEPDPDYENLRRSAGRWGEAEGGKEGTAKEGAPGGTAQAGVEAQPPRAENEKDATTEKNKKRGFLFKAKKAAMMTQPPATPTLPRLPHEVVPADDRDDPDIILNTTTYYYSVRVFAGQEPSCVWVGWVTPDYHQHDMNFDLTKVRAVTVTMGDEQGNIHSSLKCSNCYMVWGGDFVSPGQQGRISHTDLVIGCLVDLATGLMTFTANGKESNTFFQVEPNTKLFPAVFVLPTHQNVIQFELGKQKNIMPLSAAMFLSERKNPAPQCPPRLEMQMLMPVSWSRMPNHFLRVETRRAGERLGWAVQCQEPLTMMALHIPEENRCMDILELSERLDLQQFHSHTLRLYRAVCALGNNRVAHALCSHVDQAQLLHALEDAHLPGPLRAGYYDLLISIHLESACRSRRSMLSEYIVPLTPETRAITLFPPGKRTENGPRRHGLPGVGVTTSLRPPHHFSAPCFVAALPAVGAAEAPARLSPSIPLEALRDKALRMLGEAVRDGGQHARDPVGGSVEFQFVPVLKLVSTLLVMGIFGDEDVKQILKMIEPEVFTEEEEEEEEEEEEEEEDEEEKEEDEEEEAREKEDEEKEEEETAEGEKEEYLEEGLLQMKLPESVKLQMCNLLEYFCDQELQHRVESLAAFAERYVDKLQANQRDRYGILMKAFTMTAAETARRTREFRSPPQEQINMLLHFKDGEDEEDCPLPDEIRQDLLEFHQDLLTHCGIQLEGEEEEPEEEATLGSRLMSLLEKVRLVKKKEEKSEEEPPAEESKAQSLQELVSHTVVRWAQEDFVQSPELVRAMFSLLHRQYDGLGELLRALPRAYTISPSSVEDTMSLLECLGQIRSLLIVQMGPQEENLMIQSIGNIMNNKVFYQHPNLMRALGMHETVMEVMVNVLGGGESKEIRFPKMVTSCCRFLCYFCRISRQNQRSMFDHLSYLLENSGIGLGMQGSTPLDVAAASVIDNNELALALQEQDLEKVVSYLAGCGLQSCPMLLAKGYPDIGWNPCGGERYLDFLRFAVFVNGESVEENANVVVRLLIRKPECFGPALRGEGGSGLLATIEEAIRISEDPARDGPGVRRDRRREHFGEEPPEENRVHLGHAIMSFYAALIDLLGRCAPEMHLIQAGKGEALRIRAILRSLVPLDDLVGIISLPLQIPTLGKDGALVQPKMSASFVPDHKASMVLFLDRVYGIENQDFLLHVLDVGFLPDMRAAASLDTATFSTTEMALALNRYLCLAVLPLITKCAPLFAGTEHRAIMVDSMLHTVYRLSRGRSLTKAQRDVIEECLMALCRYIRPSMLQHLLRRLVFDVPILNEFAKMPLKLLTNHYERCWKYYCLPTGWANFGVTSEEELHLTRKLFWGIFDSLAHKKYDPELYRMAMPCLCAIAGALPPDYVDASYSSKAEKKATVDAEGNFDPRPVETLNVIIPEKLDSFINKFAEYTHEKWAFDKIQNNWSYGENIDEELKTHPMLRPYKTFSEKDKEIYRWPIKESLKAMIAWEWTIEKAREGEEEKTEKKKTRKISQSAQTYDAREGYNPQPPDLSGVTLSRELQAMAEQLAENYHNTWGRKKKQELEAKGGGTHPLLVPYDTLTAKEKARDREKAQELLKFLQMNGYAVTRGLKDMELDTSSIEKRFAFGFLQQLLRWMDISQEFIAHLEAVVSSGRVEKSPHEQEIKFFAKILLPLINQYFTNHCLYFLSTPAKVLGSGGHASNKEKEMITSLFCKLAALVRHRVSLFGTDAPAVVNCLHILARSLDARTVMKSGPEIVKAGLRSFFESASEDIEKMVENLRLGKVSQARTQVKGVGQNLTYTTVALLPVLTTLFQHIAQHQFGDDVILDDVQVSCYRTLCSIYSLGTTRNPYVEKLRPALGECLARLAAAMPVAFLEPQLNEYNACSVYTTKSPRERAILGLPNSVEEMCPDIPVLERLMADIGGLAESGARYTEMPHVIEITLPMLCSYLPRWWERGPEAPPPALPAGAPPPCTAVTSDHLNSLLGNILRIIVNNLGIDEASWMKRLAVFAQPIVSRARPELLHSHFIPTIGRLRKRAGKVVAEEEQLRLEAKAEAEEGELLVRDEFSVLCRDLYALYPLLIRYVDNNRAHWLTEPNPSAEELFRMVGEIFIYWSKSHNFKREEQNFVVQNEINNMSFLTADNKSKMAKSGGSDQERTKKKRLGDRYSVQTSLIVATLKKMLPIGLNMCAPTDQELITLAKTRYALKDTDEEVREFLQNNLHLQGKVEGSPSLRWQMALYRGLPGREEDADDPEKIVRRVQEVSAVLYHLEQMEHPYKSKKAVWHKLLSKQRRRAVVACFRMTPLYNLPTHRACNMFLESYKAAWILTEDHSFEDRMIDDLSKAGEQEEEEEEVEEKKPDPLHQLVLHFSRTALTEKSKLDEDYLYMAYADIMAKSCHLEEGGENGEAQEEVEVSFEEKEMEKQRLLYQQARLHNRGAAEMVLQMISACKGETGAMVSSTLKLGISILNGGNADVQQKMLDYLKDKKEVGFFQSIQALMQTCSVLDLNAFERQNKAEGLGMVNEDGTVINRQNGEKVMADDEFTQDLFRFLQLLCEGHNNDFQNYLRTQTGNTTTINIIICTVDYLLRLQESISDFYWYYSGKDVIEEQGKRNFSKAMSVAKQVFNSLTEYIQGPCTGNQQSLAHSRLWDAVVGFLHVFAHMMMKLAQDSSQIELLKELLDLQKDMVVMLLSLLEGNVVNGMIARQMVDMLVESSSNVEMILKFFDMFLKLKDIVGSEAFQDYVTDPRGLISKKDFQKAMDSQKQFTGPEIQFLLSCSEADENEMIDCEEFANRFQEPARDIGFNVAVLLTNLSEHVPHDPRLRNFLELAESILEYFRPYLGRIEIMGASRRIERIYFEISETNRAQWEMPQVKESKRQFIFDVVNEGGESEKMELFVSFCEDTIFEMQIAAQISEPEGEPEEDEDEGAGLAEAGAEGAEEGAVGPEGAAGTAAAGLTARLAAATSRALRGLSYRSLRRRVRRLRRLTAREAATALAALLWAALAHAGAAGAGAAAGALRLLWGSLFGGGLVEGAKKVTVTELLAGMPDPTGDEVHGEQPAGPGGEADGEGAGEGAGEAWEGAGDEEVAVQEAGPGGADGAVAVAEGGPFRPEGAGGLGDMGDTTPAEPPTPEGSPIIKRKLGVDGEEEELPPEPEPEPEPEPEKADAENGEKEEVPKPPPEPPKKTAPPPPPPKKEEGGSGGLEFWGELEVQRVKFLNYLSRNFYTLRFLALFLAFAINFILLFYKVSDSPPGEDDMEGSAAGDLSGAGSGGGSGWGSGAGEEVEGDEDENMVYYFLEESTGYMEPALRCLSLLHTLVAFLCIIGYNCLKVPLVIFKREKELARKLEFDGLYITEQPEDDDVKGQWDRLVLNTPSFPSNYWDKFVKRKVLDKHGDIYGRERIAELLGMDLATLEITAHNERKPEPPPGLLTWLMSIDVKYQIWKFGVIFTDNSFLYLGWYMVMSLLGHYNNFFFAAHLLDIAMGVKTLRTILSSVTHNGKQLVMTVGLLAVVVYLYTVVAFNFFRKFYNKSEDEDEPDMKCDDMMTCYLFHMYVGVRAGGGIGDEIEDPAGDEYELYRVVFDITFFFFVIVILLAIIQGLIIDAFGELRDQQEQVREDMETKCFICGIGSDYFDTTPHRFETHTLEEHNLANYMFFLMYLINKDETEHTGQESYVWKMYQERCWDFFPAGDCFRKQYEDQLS

## apo-calmodulin (from UniProt P0DP23 1-149) (natural protein)
  single-channel open probability (Po) in planar lipid bilayers with 1 uM calmodulin, 40 nM free Ca2+, 2 mM ATP: 2 fold
